The text below walks through data of patent US20190203279A1 (NAVINCI DIAGNOSTICS, published 2019).

The assay has as its target T1, β-catenin (UniProt P35222 2-781).
T1 construct: Endogenous protein in A549 cells; also called beta-catenin
T1 sequence (looked up): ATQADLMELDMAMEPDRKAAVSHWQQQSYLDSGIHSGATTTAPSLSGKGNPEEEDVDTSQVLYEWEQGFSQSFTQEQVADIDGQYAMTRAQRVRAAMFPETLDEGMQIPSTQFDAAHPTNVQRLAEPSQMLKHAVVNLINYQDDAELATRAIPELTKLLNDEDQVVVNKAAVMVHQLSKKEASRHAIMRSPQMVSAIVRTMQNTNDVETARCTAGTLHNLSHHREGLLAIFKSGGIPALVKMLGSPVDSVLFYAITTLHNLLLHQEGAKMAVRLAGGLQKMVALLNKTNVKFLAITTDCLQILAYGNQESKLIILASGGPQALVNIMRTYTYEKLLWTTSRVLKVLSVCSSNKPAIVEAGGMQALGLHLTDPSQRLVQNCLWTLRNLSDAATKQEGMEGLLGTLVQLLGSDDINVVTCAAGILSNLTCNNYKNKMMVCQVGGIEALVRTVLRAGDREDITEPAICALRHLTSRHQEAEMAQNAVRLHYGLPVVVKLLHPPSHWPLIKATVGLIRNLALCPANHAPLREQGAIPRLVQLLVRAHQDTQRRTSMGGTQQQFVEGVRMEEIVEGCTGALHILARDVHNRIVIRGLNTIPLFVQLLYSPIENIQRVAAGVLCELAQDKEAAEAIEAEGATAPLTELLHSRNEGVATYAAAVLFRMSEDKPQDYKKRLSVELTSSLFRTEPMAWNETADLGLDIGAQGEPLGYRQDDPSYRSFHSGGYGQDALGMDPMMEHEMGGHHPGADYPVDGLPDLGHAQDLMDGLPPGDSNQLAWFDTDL
The assay can be described thus: in situ proximity-based RCA assay on fixed A549 cells with anti-E-cadherin and anti-β-catenin primary antibodies and oligonucleotide-conjugated secondary antibodies. As for the experimental part:
A proximity-based detection assay was performed to detect a protein-protein complex in situ. Frozen A549 cells fixed on a microscopy slide were thawed and incubated with PBS+0.2% Triton X-100 for 5 minutes to permeabilise the cell membranes. Slides were incubated with 30 μl Olink blocking buffer for 60 minutes at 37° C. in a humidity chamber. Primary antibodies were diluted in Olink Antibody diluent (mouse IgG anti E-cadherin 1:100, rabbit IgG anti β-catenin 1:200). Blocking buffer was removed and 15 μl of each antibody solution was added and incubated overnight at 4° C. Slides were washed, and incubated with 30 μl 20 nM secondary antibodies conjugated to oligonucleotides (nucleic acid probe and activator molecule) for 60 minutes at 37° C. in a humidity chamber. Following incubation, slides were washed and incubated with 30 μl RCA mix (Phi29 buffer, BSA, PolyA, dNTPs, UNG, Hoechst, Texas Red labelled detection oligonucleotide and Phi29 polymerase) for 100 minutes at 37° C. in a humidity chamber. Slides were washed at room temperature and allowed to try, before being contacted with SlowFade mounting media and a coverslip applied and incubated for 15 minutes in the dark. All samples were analysed at the same magnification and exposure time (FIG. 18). […]

B1: E-cadherin (other, UniProt P12830 155-882, looked up)
chain: DWVIPPISCPENEKGPFPKNLVQIKSNKDKEGKVFYSITGQGADTPPVGVFIIERETGWLKVTEPLDRERIATYTLFSHAVSSNGNAVEDPMEILITVTDQNDNKPEFTQEVFKGSVMEGALPGTSVMEVTATDADDDVNTYNAAIAYTILSQDPELPDKNMFTINRNTGVISVVTTGLDRESFPTYTLVVQAADLQGEGLSTTATAVITVTDTNDNPPIFNPTTYKGQVPENEANVVITTLKVTDADAPNTPAWEAVYTILNDDGGQFVVTTNPVNNDGILKTAKGLDFEAKQQYILHVAVTNVVPFEVSLTTSTATVTVDVLDVNEAPIFVPPEKRVEVSEDFGVGQEITSYTAQEPDTFMEQKITYRIWRDTANWLEINPDTGAISTRAELDREDFEHVKNSTYTALIIATDNGSPVATGTGTLLLILSDVNDNAPIPEPRTIFFCERNPKPQVINIIDADLPPNTSPFTAELTHGASANWTIQYNDPTQESIILKPKMALEVGDYKINLKLMDNQNKDQVTTLEVSVCDCEGAAGVCRKAQPVEAGLQIPAILGILGGILALLILILLLLLFLRRRAVVKEPLLPPEDDTRDNVYYYDEEGGGEEDQDFDLSQLHRGLDARPEVTRNDVAPTLMSVPRYLPRPANPDEIGNFIDENLKAADTDPTAPPYDSLLVFDYEGSGSEAASLSSLNSSESDKDQDYDYLNEWGNRFKKLADMYGGGEDD
notes: whole, on cells; Endogenous protein in A549 cells
For the molecule B1, the binding result was “binds”.
